Columns and labels:
Assay in all cases: holdup assay
Design in all cases: key: below the threshold = too weak to quantify, mostly under pKd 3.1 to 4
[1] = target: T1, APBA2_2, Q99767
T1 sequence (Q99767 654-744, limits assumed, looked up): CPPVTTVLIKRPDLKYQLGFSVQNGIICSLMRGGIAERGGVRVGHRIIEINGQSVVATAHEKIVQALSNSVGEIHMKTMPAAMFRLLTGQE

[2] = target: ARHGEF12, Q9NZN5-2
[3] = target: T2, CARD11, Q9BXL7
T2 sequence (Q9BXL7 662-765, limits assumed, looked up): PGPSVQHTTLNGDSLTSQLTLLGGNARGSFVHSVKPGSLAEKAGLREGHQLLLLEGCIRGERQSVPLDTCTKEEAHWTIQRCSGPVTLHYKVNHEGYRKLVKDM

[4] = target: CASK, O14936
Sequence of CASK, O14936 (O14936 487-570): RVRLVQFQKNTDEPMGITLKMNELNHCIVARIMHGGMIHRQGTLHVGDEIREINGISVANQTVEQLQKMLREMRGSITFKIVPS

[5] = target: T3, DFNB31_1, Q9P202
T3 sequence (Q9P202 135-233, limits assumed, looked up): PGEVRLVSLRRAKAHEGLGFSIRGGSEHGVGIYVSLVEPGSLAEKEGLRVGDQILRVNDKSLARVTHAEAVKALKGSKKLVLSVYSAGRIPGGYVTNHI

[6] = target: FRMPD2_2, Q68DX3
Sequence of FRMPD2_2, Q68DX3 (Q68DX3 944-1038): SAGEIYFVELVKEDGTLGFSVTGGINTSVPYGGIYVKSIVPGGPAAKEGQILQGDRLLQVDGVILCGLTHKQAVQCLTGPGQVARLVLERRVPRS

[7] = target: GRID2IP_1, A4D2P6
Sequence of GRID2IP_1, A4D2P6 (A4D2P6 1-87): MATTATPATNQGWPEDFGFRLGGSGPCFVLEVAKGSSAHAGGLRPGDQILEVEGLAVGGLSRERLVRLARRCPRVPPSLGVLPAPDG

[8] = target: GRID2IP_2, A4D2P6
Sequence of GRID2IP_2, A4D2P6 (A4D2P6 272-370): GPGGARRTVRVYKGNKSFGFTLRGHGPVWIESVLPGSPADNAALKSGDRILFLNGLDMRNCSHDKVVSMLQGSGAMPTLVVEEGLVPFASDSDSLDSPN

[9] = target: T4, GRIP1_2, Q9Y3R0
T4 sequence (Q9Y3R0 145-248, limits assumed, looked up): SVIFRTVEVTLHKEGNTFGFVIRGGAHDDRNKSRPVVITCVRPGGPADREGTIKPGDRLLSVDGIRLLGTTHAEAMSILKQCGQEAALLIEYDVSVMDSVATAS

[10] = target: T5, GRIP1_3, Q9Y3R0
T5 sequence (Q9Y3R0 247-346, limits assumed, looked up): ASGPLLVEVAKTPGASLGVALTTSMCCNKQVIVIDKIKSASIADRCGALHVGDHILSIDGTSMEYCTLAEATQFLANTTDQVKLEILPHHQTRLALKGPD

[11] = target: T6, GRIP1_7, Q9Y3R0
T6 sequence (Q9Y3R0 999-1096, limits assumed, looked up): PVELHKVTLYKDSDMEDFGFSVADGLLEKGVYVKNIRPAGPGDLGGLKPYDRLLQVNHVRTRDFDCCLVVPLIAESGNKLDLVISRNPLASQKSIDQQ

[12] = target: GRIP2_4, Q9C0E4
Sequence of GRIP2_4, Q9C0E4 (Q9C0E4 446-548): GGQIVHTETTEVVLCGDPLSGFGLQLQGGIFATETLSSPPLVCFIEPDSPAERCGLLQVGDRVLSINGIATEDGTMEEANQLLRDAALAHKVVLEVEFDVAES

[13] = target: IL16_1, Q14005
Sequence of IL16_1, Q14005 (Q14005 210-306): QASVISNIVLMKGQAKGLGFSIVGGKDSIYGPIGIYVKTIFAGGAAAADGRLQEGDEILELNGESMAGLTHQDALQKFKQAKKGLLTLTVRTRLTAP

[14] = target: Inadl_6, Q8NI35
Sequence of Inadl_6, Q8NI35 (Q8NI35 1058-1167): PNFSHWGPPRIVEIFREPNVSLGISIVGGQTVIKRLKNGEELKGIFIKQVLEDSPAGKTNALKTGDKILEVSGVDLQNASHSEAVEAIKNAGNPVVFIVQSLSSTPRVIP

[15] = target: Inadl_9, Q8NI35
Sequence of Inadl_9, Q8NI35 (Q8NI35 1530-1615): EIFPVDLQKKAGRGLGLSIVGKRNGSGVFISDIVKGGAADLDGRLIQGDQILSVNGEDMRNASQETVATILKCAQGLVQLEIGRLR

[16] = target: LIMK2, P53671
Sequence of LIMK2, P53671 (P53671 143-248): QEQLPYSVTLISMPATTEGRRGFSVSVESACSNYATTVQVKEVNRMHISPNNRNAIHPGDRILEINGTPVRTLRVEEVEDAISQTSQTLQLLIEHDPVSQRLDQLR

[17] = target: LNX1_2, Q8TBB1
Sequence of LNX1_2, Q8TBB1 (Q8TBB1 371-470): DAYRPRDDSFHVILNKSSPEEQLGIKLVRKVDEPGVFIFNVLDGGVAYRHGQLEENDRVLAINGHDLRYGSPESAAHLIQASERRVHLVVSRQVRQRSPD

[18] = target: T7, LNX2_3, Q8N448
T7 sequence (Q8N448 463-564, limits assumed, looked up): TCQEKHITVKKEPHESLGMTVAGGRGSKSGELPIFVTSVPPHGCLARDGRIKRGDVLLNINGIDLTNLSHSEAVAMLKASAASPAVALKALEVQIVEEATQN

[19] = target: MAGI1_1, Q96QZ7
Sequence of MAGI1_1, Q96QZ7 (Q96QZ7 1-106): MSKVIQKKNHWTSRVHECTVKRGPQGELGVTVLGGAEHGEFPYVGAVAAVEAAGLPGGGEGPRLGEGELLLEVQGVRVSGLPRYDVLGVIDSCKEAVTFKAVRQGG

[20] = target: MAGI2_2, Q86UL8
Sequence of MAGI2_2, Q86UL8 (Q86UL8 410-522): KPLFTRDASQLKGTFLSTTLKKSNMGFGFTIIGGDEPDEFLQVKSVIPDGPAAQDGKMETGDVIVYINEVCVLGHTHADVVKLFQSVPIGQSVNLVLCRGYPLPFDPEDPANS

[21] = target: MAGI2_5, Q86UL8
Sequence of MAGI2_5, Q86UL8 (Q86UL8 915-1017): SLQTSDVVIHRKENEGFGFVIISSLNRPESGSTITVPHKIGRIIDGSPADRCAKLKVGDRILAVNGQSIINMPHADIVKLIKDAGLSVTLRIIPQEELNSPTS

[22] = target: T8, MPDZ_12, O75970
T8 sequence (O75970 1857-1958, limits assumed, looked up): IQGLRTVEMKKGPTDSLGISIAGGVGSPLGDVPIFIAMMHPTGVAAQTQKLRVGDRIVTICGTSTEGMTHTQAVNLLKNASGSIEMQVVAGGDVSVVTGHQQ

[23] = target: T9, NHERF3_3, Q5T2W1
T9 sequence (Q5T2W1 238-333, limits assumed, looked up): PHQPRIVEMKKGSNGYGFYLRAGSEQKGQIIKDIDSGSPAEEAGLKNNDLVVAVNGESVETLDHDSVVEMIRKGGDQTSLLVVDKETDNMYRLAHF

[24] = target: NHERF4_4, Q86UT5
Sequence of NHERF4_4, Q86UT5 (Q86UT5 464-550): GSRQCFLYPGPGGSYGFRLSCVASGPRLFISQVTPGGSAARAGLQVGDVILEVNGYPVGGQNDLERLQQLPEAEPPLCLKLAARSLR

[25] = target: PDLIM1, O00151
Sequence of PDLIM1, O00151 (O00151 1-87): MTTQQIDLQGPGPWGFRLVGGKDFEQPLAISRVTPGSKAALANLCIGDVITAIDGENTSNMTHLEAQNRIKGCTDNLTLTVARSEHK

[26] = target: T10, RADIL, Q96JH8
T10 sequence (Q96JH8 971-1071, limits assumed, looked up): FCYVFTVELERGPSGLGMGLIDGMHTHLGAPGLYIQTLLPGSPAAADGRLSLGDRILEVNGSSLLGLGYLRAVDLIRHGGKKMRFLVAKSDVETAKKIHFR

[27] = target: T11, SIPA1L2, Q9P2F8
T11 sequence (Q9P2F8 945-1036, limits assumed, looked up): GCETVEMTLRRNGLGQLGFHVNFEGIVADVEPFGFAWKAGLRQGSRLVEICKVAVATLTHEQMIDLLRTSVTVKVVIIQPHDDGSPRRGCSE

[28] = plain residues with an end cap or a label only (N-terminal biotin on a linker: ttds)
[29] = plain residues with an end cap or a label only (N-terminal biotin on a linker: ado-ado)
[30] = plain residues with an end cap or a label only (N-terminal biotin on a linker: none)

Sequence of ARHGEF12, Q9NZN5-2 (Q9NZN5 other isoform, or with tags, fused parts or gaps): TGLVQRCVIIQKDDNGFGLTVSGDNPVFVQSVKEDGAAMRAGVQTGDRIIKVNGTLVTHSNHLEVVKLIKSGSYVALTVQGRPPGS

B1: ASIC3, Q9UHC3 (peptide)
chain: HRTCYLVTQL
What does the source list for B1?
pKd [1, 28]: below the threshold; pKd [2, 28]: 5.63; pKd [3, 28]: below the threshold; pKd [4, 28]: below the threshold; pKd [5, 28]: 3.67; pKd [6, 28]: 3.76; pKd [7, 28]: below the threshold; pKd [8, 28]: 4.56; pKd [9, 28]: below the threshold; pKd [10, 28]: below the threshold; pKd [11, 28]: below the threshold; pKd [12, 28]: below the threshold; pKd [13, 28]: below the threshold; pKd [14, 28]: 4.23; pKd [15, 28]: below the threshold; pKd [16, 28]: below the threshold; pKd [17, 28]: 3.46; pKd [18, 28]: below the threshold; pKd [19, 28]: 3.5; pKd [20, 28]: 4.14; pKd [21, 28]: 4.63; pKd [22, 28]: 3.34; pKd [23, 28]: 3.52; pKd [24, 28]: 3.45; pKd [25, 28]: 3.46; pKd [26, 28]: 4.43; pKd [27, 28]: below the threshold

B2: EPHA7, Q15375 (peptide)
chain: LHLHGTGIQV
For B2, which pKd [1, 29] is on record?
Its pKd is “below the threshold”.

And the pKd [2, 29]?
The pKd was 4.19.

What about the pKd [3, 29] of the same binder?
Its pKd is “below the threshold”.

And the pKd [4, 29]?
Its pKd is “below the threshold”.

And the pKd [5, 29]?
The pKd was 3.53.

And the pKd [6, 29]?
The pKd was “below the threshold”.

What about the pKd [7, 29] of the same binder?
The pKd was “below the threshold”.

And the pKd [8, 29]?
The pKd was “below the threshold”.

And the pKd [9, 29]?
The pKd was “below the threshold”.

What about the pKd [10, 29] of the same binder?
Its pKd is “below the threshold”.

What about the pKd [11, 29] of the same binder?
Its pKd is 3.49.

What about the pKd [12, 29] of the same binder?
Its pKd is “below the threshold”.

What about the pKd [13, 29] of the same binder?
Its pKd is “below the threshold”.

What about the pKd [14, 29] of the same binder?
Its pKd is “below the threshold”.

What about the pKd [15, 29] of the same binder?
The pKd was 4.37.

What about the pKd [16, 29] of the same binder?
Its pKd is “below the threshold”.

And the pKd [17, 29]?
The pKd was 4.37.

And the pKd [18, 29]?
The pKd was 3.47.

And the pKd [19, 29]?
Its pKd is 3.59.

What about the pKd [20, 29] of the same binder?
The pKd was 3.51.

And the pKd [21, 29]?
Its pKd is “below the threshold”.

What about the pKd [22, 29] of the same binder?
The pKd was 3.55.

And the pKd [23, 29]?
The pKd was “below the threshold”.

What about the pKd [24, 29] of the same binder?
Its pKd is 4.07.

And the pKd [25, 29]?
Its pKd is “below the threshold”.

And the pKd [26, 29]?
Its pKd is 4.58.

What about the pKd [27, 29] of the same binder?
Its pKd is “below the threshold”.

B3: MERS-E, K9N5R3 (peptide)
chain: DSKPPLPPDEWV
What does the source list for B3?
pKd [1, 30]: below the threshold; pKd [2, 30]: 3.76; pKd [3, 30]: below the threshold; pKd [4, 30]: 3.48; pKd [5, 30]: 3.61; pKd [6, 30]: below the threshold; pKd [7, 30]: 3.57; pKd [8, 30]: 3.53; pKd [9, 30]: 3.62; pKd [10, 30]: below the threshold; pKd [11, 30]: 3.88; pKd [12, 30]: below the threshold; pKd [13, 30]: 3.64; pKd [14, 30]: 3.81; pKd [15, 30]: 3.57; pKd [16, 30]: below the threshold; pKd [17, 30]: below the threshold; pKd [18, 30]: below the threshold; pKd [19, 30]: below the threshold; pKd [20, 30]: below the threshold; pKd [21, 30]: below the threshold; pKd [22, 30]: below the threshold; pKd [23, 30]: below the threshold; pKd [24, 30]: below the threshold; pKd [25, 30]: below the threshold; pKd [26, 30]: 4.06; pKd [27, 30]: below the threshold

From publication PMC9482650, “Quantitative fragmentomics allow affinity mapping of interactomes” (Nature Communications, 2022)
